According to patent US20110028686A1 (published 2011):
Read-outs that look alike come from different tables or passages of the source. Square brackets hold non-standard residues; d marks the D form. Ends that are not written are not given here. pS = N[C@@H](COP(=O)(O)O)C(=O)O

B1: KID-AB^P (peptide)
peptide: TDSQKRREILSRRP[pS]YRKILNDLSSDAPGVC-NH2
modifications: also: C-terminal Cys acetamidofluorescein-labelled in direct assays, unlabelled as competitor
notes: CREB KID residues 119-148 (A and B helices) plus a C-terminal Cys; also called KID-AB (phosphorylated); CREB KID^P
B2: peptide C^P (peptide)
peptide: RRL[pS]FFYILLDLYLDAPGVC(acetamidofluorescein)-NH2
notes: Chimeric alpha-helical portion of the PPKID peptides (residues 15-33); also called Peptide C (phosphorylated)
B3: PPKID6^U (designed binder)
peptide: GISWPTFEGDDAPVRRLSFFYILLDLYLDAPGVC(acetamidofluorescein)-NH2
notes: also called PPKID6 (unphosphorylated)
B4: PPKID4^P (designed binder)
peptide: GPSQPTYPGDDAPVRRL[pS]FFYILLDLYLDAPGVC(acetamidofluorescein)-NH2
notes: also called PPKID4 (phosphorylated)
B5: Bak peptide (peptide)
peptide: GQVGRQLAIIGDDINRYC-NH2
modifications: not fully specified (residue 18)
notes: Labelled form used for Kd determinations carries an additional carboxy-terminal YC; The printed mass (1724) looks too small for residues 72-94; also called Bak BH3 peptide; Bak (72-94)
B6: p4099 (designed binder)
peptide: GPSQPTYPGDDAPVEDLIRFVGRLLAYFGDTINRYC(5‑iodoacetamidofluorescein)-NH2
notes: also called p4121-flu (labelled form, by order and mass)

Experiments:
CBP KIX L603A [1] = biological target: T1, CBP KIX L603A (UniProt P45481 586-665, limits assumed); assay: FP with CBP KIX variant
T1 construct: domain: KIX

CBP KIX L599A [2] = biological target: T2, CBP KIX L599A (UniProt P45481 586-665, limits assumed); assay: FP with CBP KIX variant
T2 construct: domain: KIX

CBP KIX Y658A [3] = biological target: T3, CBP KIX Y658A (UniProt P45481 586-665, limits assumed); assay: FP with CBP KIX variant
T3 construct: domain: KIX

[4] = biological target: T4, CBP KIX Y650A (Example 20) (UniProt P45481 586-665, limits assumed); assay: FP with CBP KIX variant
T4 construct: domain: KIX

CBP KIX Q661A [5] = biological target: T5, CBP KIX Q661A (UniProt P45481 586-665, limits assumed); assay: FP with CBP KIX variant
T5 construct: domain: KIX

CBP KIX LL652-3AA [6] = biological target: T6, CBP KIX LL652-3AA (UniProt P45481 586-665, limits assumed); assay: FP with CBP KIX variant
T6 construct: domain: KIX

CBP KIX I657A [7] = biological target: T7, CBP KIX I657A (UniProt P45481 586-665, limits assumed); assay: FP with CBP KIX variant
T7 construct: domain: KIX; also called 1657A

CBP KIX E655A [8] = biological target: T8, CBP KIX E655A (UniProt P45481 586-665, limits assumed); assay: FP with CBP KIX variant
T8 construct: domain: KIX

CBP KIX K606A [9] = biological target: T9, CBP KIX K606A (UniProt P45481 586-665, limits assumed); assay: FP with CBP KIX variant
T9 construct: domain: KIX

CBP KIX K662A [10] = biological target: T10, CBP KIX K662A (UniProt P45481 586-665, limits assumed); assay: FP with CBP KIX variant
T10 construct: domain: KIX

CBP KIX I660A [11] = biological target: T11, CBP KIX I660A (UniProt P45481 586-665, limits assumed); assay: FP with CBP KIX variant
T11 construct: domain: KIX; also called 1660A

CBP KIX Y658F [12] = biological target: T12, CBP KIX Y658F (UniProt P45481 586-665, limits assumed); assay: FP with CBP KIX variant
T12 construct: domain: KIX

CBP KIX L603A [13] = biological target: T1, CBP KIX L603A; assay: FP, 25 nM fluorescein-labelled ligand titrated with CBP KIX variant, 25 C
CBP KIX L599A [14] = biological target: T2, CBP KIX L599A; assay: as above
CBP KIX Y658A [15] = biological target: T3, CBP KIX Y658A; assay: as above
[16] = biological target: T4, CBP KIX Y650A (Example 20); assay: as above
CBP KIX Q661A [17] = biological target: T5, CBP KIX Q661A; assay: as above
CBP KIX LL652-3AA [18] = biological target: T6, CBP KIX LL652-3AA; assay: as above
CBP KIX I657A [19] = biological target: T7, CBP KIX I657A; assay: as above
CBP KIX E655A [20] = biological target: T8, CBP KIX E655A; assay: as above
CBP KIX K606A [21] = biological target: T9, CBP KIX K606A; assay: as above
CBP KIX K662A [22] = biological target: T10, CBP KIX K662A; assay: as above
CBP KIX I660A [23] = biological target: T11, CBP KIX I660A; assay: as above
CBP KIX Y658F [24] = biological target: T12, CBP KIX Y658F; assay: as above
[25] = biological target: T13, CBP KIX, wild type (Example 20) (UniProt P45481 586-665, limits assumed); assay: FP, 25 nM fluorescein-labelled ligand titrated with CBP KIX, 25 C
T13 construct: domain: KIX; also called wild type CBP KIX; CBP MX

HisKIX [26] = biological target: T14, HisKIX (UniProt P45481 586-672); assay: FP with HisKIX
T14 construct: range 586-672; the residue numbers fit mouse CBP; also called His-tagged CBP KIX domain; CBP KIX; not shown: amino-terminal hexahistidine tag and linker of pET15b

HisKIX [27] = biological target: T14, HisKIX; assay: FP, fluorescein-labelled peptide titrated with HisKIX, 25 C
[28] = biological target: carbonic anhydrase II (Sigma); assay: FP, 50 nM fluorescein-labelled peptide titrated with carbonic anhydrase II, 25 C
Target sequence in this assay (P00921 2-260): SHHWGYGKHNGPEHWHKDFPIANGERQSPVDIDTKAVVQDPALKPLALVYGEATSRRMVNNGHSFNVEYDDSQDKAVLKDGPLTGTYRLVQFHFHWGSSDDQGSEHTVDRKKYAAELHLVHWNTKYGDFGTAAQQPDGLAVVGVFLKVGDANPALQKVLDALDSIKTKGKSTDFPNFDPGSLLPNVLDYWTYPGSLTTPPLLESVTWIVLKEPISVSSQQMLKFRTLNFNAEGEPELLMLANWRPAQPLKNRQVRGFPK

calmodulin (Sigma) [29] = biological target: T15, calmodulin (Sigma) (UniProt P62157 2-149); assay: FP; specificity ratio
calmodulin (Sigma) [30] = biological target: T15, calmodulin (Sigma); assay: FP, 50 nM fluorescein-labelled peptide titrated with calmodulin, 25 C
calmodulin (Sigma) [31] = biological target: T15, calmodulin (Sigma); assay: FP with calmodulin
[32] = biological target: carbonic anhydrase II (Sigma); assay: FP, 50 nM fluorescein-labelled peptide titrated with carbonic anhydrase II, 25 C; remark: listed apart in the source
Target sequence in this assay (chain, as listed by the source): as the sequence (P00921 2-260) above

HisKIX [33] = biological target: T14, HisKIX; assay: FP with HisKIX; end of the range assigned by Table 1
HisKIX [34] = biological target: T14, HisKIX; assay: FP, fluorescein-labelled peptide titrated with HisKIX, 25 C; remark: listed apart in the source
calmodulin (Sigma) [35] = biological target: T15, calmodulin (Sigma); assay: FP with calmodulin (text value; Table 2 prints 52 ± 12)
CBP KIX Y658A [36] = biological target: T3, CBP KIX Y658A; assay: FP with CBP KIX variant (text value; Table 3 prints 3.9 ± 0.3)
[37] = biological target: T13, CBP KIX, wild type (Example 20); assay: FP, fluorescein-labelled PPKID4^P titrated with CBP KIX
[38] = biological target: T16, Human recombinant Bcl-2 (1-205), soluble GST-fusion (Santa Cruz Biotechnology) (human, UniProt P10415 1-205); assay: fluorescence emission titration, fluorescein-labelled peptide + serially diluted Bcl-2, 4 C, PBS
T16 construct: Bought; also called GST-Bcl-2; not shown: glutathione S-transferase (GST) fusion partner

calmodulin (Sigma) [39] = biological target: T15, calmodulin (Sigma); assay: fluorescence emission titration, fluorescein-labelled peptide + calmodulin (HEPES, KCl, CaCl2 buffer)
[40] = biological target: carbonic anhydrase II (Sigma); assay: fluorescence emission titration, fluorescein-labelled peptide + carbonic anhydrase II, PBS
Target sequence in this assay (chain, as listed by the source): as the sequence (P00921 2-260) above

[41] = biological target: T16, Human recombinant Bcl-2 (1-205), …; assay: fluorescence emission titration with Bcl-2

T13 sequence (P45481 586-665 limits assumed): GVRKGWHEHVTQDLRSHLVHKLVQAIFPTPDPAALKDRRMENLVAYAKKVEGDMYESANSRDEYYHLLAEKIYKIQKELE
T5 sequence (P45481 586-665 Q661A limits assumed): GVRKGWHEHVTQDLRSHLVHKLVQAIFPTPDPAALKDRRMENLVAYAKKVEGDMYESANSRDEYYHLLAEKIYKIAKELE
T2 sequence (P45481 586-665 L599A limits assumed): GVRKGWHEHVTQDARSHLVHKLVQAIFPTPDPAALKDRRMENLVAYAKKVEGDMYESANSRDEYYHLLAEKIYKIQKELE
T9 sequence (P45481 586-665 K606A limits assumed): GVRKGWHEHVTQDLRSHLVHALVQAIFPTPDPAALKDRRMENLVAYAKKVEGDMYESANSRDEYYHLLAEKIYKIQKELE
T16 sequence (P10415 1-205): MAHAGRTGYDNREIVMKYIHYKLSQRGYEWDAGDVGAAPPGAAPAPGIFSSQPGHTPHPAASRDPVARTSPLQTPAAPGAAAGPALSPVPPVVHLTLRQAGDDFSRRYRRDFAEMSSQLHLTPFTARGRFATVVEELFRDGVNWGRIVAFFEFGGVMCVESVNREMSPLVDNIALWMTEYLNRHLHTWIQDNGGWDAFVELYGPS
T12 sequence (P45481 586-665 Y658F limits assumed): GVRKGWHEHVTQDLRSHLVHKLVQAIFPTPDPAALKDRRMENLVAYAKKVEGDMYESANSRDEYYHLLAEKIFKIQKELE
T3 sequence (P45481 586-665 Y658A limits assumed): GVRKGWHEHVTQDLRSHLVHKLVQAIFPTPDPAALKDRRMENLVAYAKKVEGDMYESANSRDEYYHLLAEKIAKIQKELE
T14 sequence (P45481 586-672): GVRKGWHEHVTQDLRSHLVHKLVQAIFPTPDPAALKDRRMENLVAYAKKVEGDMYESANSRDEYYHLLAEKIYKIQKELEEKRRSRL
T1 sequence (P45481 586-665 L603A limits assumed): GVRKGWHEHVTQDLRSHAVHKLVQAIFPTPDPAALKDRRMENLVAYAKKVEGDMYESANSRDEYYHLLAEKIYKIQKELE
T11 sequence (P45481 586-665 I660A limits assumed): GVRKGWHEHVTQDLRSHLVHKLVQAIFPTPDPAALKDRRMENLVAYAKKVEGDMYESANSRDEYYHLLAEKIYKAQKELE
T6 sequence (P45481 other isoform, or with tags, fused parts or gaps limits assumed): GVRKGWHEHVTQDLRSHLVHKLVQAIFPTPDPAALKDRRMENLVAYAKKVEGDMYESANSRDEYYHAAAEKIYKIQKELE
T7 sequence (P45481 586-665 I657A limits assumed): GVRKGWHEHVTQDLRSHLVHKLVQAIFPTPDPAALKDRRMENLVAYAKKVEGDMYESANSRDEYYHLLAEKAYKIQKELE
T10 sequence (P45481 586-665 K662A limits assumed): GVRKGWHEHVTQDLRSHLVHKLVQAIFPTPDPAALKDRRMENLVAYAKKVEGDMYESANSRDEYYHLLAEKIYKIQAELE
T8 sequence (P45481 586-665 E655A limits assumed): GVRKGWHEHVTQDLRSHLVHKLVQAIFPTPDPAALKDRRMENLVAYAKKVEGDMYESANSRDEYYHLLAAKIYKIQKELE
T4 sequence (P45481 586-665 Y650A limits assumed): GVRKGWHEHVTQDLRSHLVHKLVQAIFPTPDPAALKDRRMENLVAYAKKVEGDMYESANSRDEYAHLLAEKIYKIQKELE

Binder | ΔΔG relative to wild type CBP KIX (CBP KIX L603A [1]) | ΔΔG relative to wild type CBP KIX (CBP KIX L599A [2]) | ΔΔG relative to wild type CBP KIX (CBP KIX Y658A [3]) | ΔΔG relative to wild type CBP KIX [4] | ΔΔG relative to wild type CBP KIX (CBP KIX Q661A [5]) | ΔΔG relative to wild type CBP KIX (CBP KIX LL652-3AA [6]) | Kd (CBP KIX L603A [13]) | Kd (CBP KIX Y658A [15]) | Kd [16] | Kd (CBP KIX Q661A [17]) | Kd (CBP KIX LL652-3AA [18]) | Kd (CBP KIX I657A [19]) | Kd (CBP KIX E655A [20]) | Kd (CBP KIX K606A [21]) | Kd (CBP KIX K662A [22]) | Kd (CBP KIX I660A [23]) | Kd (CBP KIX Y658F [24]) | Kd [25] | Kd (HisKIX [27]) | Kd (calmodulin (Sigma) [30]) | other results
B1 | 1.2 kcal/mol | 0.58 kcal/mol | 3.5 kcal/mol | 1.8 kcal/mol | 0.48 kcal/mol | 1.2 kcal/mol | 3400 nM | 142000 nM | 9400 nM | 930 nM | 2900 nM | 1900 nM | 710 nM | 2300 nM | 4800 nM | 270 nM | 26000 nM | 410 nM | 562 nM |  | ΔΔG relative to wild type CBP KIX (CBP KIX I657A [7]): 0.9 kcal/mol; ΔΔG relative to wild type CBP KIX (CBP KIX E655A [8]): 0.32 kcal/mol; ΔΔG relative to wild type CBP KIX (CBP KIX K606A [9]): 1 kcal/mol; ΔΔG relative to wild type CBP KIX (CBP KIX K662A [10]): 1.5 kcal/mol; ΔΔG relative to wild type CBP KIX (CBP KIX I660A [11]): -0.26 kcal/mol; ΔΔG relative to wild type CBP KIX (CBP KIX Y658F [12]): 2.5 kcal/mol; Kd (CBP KIX L599A [14]): 1100 nM; ΔΔG upon phosphorylation (HisKIX [26]): > 3.2 kcal/mol
B2 |  |  |  |  |  |  |  |  |  |  |  |  |  |  |  |  |  |  |  | 178000 nM | Kd [28]: 97000 nM; Krel = Kd (CalM)/Kd (HisKIX) (calmodulin (Sigma) [29]): 74; fold increase in affinity over KID-B^P (HisKIX [26]): > 20 fold; fold lower affinity than PPKID4^P (HisKIX [26]): 5 fold; ΔΔG relative to KID-B^P (HisKIX [26]): -1.8 kcal/mol; fold lower affinity than PPKID4^P (calmodulin (Sigma) [31]): 4 fold
B3 | 0.91 kcal/mol | 1.1 kcal/mol | 0.68 kcal/mol | 0.52 kcal/mol | -0.16 kcal/mol | -0.8 kcal/mol | 2500 nM | 1700 nM | 1300 nM | 410 nM | 140 nM | 3600 nM | 1700 nM | 1200 nM | 1800 nM | 6100 nM | 2800 nM | 540 nM | 1500 nM | > 168000 nM | Kd [32]: 79000 nM; fold enhancement in affinity over KID-AB^U (HisKIX [33]): ≥ 77 fold; fold enhancement in affinity over KID-B^U (HisKIX [33]): ≥ 198 fold; fold enhancement in affinity over peptide C^U (HisKIX [33]): 7 to 14 fold; ΔΔG relative to wild type CBP KIX (CBP KIX I657A [7]): 1.1 kcal/mol; ΔΔG relative to wild type CBP KIX (CBP KIX E655A [8]): 0.68 kcal/mol; ΔΔG relative to wild type CBP KIX (CBP KIX K606A [9]): 0.47 kcal/mol; ΔΔG relative to wild type CBP KIX (CBP KIX K662A [10]): 0.71 kcal/mol; ΔΔG relative to wild type CBP KIX (CBP KIX I660A [11]): 1.4 kcal/mol; ΔΔG relative to wild type CBP KIX (CBP KIX Y658F [12]): 0.97 kcal/mol; Krel = Kd (CalM)/Kd (HisKIX) (calmodulin (Sigma) [29]): > 112; Kd (CBP KIX L599A [14]): 3300 nM; Kd (HisKIX [34]): 1500 nM
B4 |  |  |  |  |  |  | 3400 nM | 3900 nM | 3000 nM | 1100 nM | 2900 nM | 2700 nM | 540 nM | 3100 nM | 3900 nM | 1100 nM | 4100 nM | 610 nM | 515 nM | 52000 nM | Kd (calmodulin (Sigma) [35]): 51000 nM; Kd (CBP KIX Y658A [36]): 4100 nM; Kd [32]: 106000 nM; Kd [37]: 610 nM; Kd (HisKIX [34]): 515 nM
B5 |  |  |  |  |  |  |  |  |  |  |  |  |  |  |  |  |  |  |  |  | Kd [38]: 363 nM; Kd (calmodulin (Sigma) [39]): 25000 nM; Kd [40]: 22000 nM
B6 |  |  |  |  |  |  |  |  |  |  |  |  |  |  |  |  |  |  |  |  | fold better binding than p4101 [41]: ~2 fold; Kd [38]: 352 nM; Kd (calmodulin (Sigma) [39]): 25000 nM; Kd [40]: 8600 nM
